Measured values reported in article PMC3228830, “Targeted Proteolysis of Plectin Isoform 1a Accounts for Hemidesmosome Dysfunction in Mice Mimicking the Dominant Skin Blistering Disease EBS-Ogna” (PLoS Genetics, 2011).

Target: the molecule itself
Assay: SEC-MALS; Superose 6 10/300 GL column, 0.5 ml/min, protein 2 mg/ml, load 75 ul

B1: His-tagged wild-type plectin rod domain (pNV10) (domain or fragment)
chain: IKFISETLRRMEEEERLAEQQRAEERERLAEVEAALEKQRQLAEAHAQAKAQAELEAQELQRRMQEEVARREEAAVDAQQQKRSIQEELQHLRQSSEAEIQAKAQQVEAAERSRMRIEEEIRVVRLQLETTERQRGGAEGELQALRARAEEAEAQKRQAQEEAERLRRQVQDESQRKRQAEAELALRVKAEAEAAREKQRALQALDELRLQAEEAERRLRQAEAERARQVQVALETAQRSAEVELQSKRASFAEKTAQLERTLQEEHVTVAQLREEAERRAQQQAEAERAREEAERELERWQLKANEALRLRLQAEEVAQQKSLAQADAEKQKEEAEREARRRGKAEEQAVRQRELAEQELEKQRQLAEGTAQQRLAAEQELIRLRAETEQGEQQRQLLEEELARLQHEATAATQKRQELEAELAKVRAEMEVLLASKARAEEESRSTSEKSKQRLEAEAGRFRELAEEAARLRALAEEAKRQRQLAEEDAARQRAEAERVLTEKLAAISEATRLKTEAEIALKEKEAENERLRRLAEDEAFQRRRLEEQAALHKADIEERLAQLRKASESELERQKGLVEDTLRQRRQVEEEIMALKVSFEKAAAGKAELELELGRIRSNAEDTMRSKEQAELEAARQRQLAAEEEQRRREAEERVQRSLAAEEEAARQRKVALEEVERLKAKVEEARRLRERAEQESARQLQLAQEAAQKRLQAEEKAHAFVVQQREEELQQTLQQEQNMLDRLRSEAEAARRAAEEAEEAREQAEREAAQSRKQVEEAERLKQSAEEQAQAQAQAQAAAEKLRKEAEQEAARRAQAEQAALKQKQAADAEMEKHKKFAEQTLRQKAQVEQELTTLRLQLEETDHQKSILDEELQRLKAEVTEAARQRSQVEEELFSVRVQMEELGKLKARIEAENRALILRDKDNTQRFLEEEAEKMKQVAEEAARLSVAAQEAARLRQLAEEDLAQQRALAEKMLKEKMQAVQEATRLKAEAELLQQQKELAQEQARRLQEDKEQMAQQLVEETQGFQRTLEAERQRQLEMSAEAERLKLRMAEMSRAQARAEEDAQRFRKQAEEIGEKLHRTELATQEKVTLVQTLEIQRQQSDHDAERLREAIAELEREKEKLKQEAKLLQLKSEEMQTVQQEQILQETQALQKSFLSEKDSLLQRERFIEQEKAKLEQLFQDEVAKAKQLREEQQRQQQQMEQEKQELMASMEEARRRQREAEEGVRRKQEELQHLEQQRQQQEKLLAEENQRLRERLQRLEEEHRAALAHSEIATT
**Q.** B1 was tested. Which “stoichiometry N” value did it give?
**A.** Its value is 2.
